Numbered stars: 1 amine (or outer) side, 2 acyl side, 3 side chain; on linkers, the order of the positions; unused ones are H or OH. Bridge positions count the residues as written; N and C are the ends. Square brackets hold non-standard residues; d marks the D form. Side chains are listed from the residue outwards. Ends that are not written are not given here. * marks the point of attachment. C18 diacid = O=C(O)CCCCCCCCCCCCCCCCC(=O)*; γGlu = O=C(O)[C@H](CCC(=O)[*:2])N[*:1]; Aib = CC(C)(N)C(=O)O
Legend:
[1] = biological target: T1, human amylin receptor (calcitonin receptor co-expressed with receptor activity modifying protein, RAMP3) (human, UniProt P30988 25-474; O60896 24-148); assay: cell-based or functional assay
T1 sequence (looked up) 1: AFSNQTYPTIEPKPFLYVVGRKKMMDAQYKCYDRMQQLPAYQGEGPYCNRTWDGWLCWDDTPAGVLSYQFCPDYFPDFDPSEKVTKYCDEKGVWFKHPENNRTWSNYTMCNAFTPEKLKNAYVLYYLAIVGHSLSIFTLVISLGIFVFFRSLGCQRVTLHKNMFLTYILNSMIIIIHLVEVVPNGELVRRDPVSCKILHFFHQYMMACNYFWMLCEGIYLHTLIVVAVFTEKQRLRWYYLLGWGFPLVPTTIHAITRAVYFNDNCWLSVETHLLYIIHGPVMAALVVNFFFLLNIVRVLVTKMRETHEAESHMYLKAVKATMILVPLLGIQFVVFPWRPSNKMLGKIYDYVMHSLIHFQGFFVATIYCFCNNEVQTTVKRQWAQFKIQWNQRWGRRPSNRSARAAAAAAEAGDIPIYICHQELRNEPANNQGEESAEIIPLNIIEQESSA
T1 sequence (looked up) 2: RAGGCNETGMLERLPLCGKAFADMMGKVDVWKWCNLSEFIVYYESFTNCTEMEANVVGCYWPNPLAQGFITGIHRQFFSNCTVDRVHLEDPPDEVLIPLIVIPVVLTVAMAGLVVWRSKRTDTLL

[2] = biological target: T2, human calcitonin receptor (human, UniProt P30988 25-474); assay: cell-based or functional assay
T2 sequence (looked up): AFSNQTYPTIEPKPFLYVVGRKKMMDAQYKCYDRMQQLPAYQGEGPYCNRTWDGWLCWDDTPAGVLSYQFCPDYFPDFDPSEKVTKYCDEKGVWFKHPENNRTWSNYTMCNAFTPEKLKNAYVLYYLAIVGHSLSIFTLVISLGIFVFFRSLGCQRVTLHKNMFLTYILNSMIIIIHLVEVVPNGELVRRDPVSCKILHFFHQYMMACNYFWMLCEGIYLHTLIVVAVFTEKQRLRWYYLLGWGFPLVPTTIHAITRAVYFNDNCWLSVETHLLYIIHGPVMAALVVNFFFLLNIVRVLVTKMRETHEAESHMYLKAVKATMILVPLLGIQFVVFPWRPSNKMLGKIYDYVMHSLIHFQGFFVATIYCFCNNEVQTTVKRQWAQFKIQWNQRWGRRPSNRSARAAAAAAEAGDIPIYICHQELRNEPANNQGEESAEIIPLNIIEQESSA

Binder | EC50 (cAMP production) [1] [nM] | Ratio (EC50 hCTR / EC50 hAMYR3) [1] | EC50 (cAMP production) [2] [nM]
K([γGlu-C18 diacid])KCNTATCATQRLANFLRHSS[Aib]NFGPILPPTNVGSNTY-NH2 (disulfide 3-8; N-terminus assumed; SMILES CC[C@H](C)[C@H](NC(=O)[C@@H]1CCCN1C(=O)CNC(=O)[C@H](Cc1ccccc1)NC(=O)[C@H](CC(N)=O)NC(=O)C(C)(C)NC(=O)[C@H](CO)NC(=O)[C@H](CO)NC(=O)[C@H](Cc1c[nH]cn1)NC(=O)[C@H](CCCNC(=N)N)NC(=O)[C@H](CC(C)C)NC(=O)[C@H](Cc1ccccc1)NC(=O)[C@H](CC(N)=O)NC(=O)[C@H](C)NC(=O)[C@H](CC(C)C)NC(=O)[C@H](CCCNC(=N)N)NC(=O)[C@H](CCC(N)=O)NC(=O)[C@@H](NC(=O)[C@H](C)NC(=O)[C@@H]1CSSC[C@H](NC(=O)[C@H](CCCCN)NC(=O)[C@@H](N)CCCCNC(=O)CC[C@H](NC(=O)CCCCCCCCCCCCCCCCC(=O)O)C(=O)O)C(=O)N[C@@H](CC(N)=O)C(=O)N[C@@H]([C@@H](C)O)C(=O)N[C@@H](C)C(=O)N[C@@H]([C@@H](C)O)C(=O)N1)[C@@H](C)O)C(=O)N[C@@H](CC(C)C)C(=O)N1CCC[C@H]1C(=O)N1CCC[C@H]1C(=O)N[C@H](C(=O)N[C@@H](CC(N)=O)C(=O)N[C@H](C(=O)NCC(=O)N[C@@H](CO)C(=O)N[C@@H](CC(N)=O)C(=O)N[C@H](C(=O)N[C@@H](Cc1ccc(O)cc1)C(N)=O)[C@@H](C)O)C(C)C)[C@@H](C)O) [Peptide 65 (SEQ ID NO: 65)] | 0.207 | 31 | 6.4
K([γGlu-γGlu-C18 diacid])KCNTATCATQRLANFLRHSS[Aib]NFGPILPPTNVGSNTY-NH2 (disulfide 3-8; N-terminus assumed; SMILES CC[C@H](C)[C@H](NC(=O)[C@@H]1CCCN1C(=O)CNC(=O)[C@H](Cc1ccccc1)NC(=O)[C@H](CC(N)=O)NC(=O)C(C)(C)NC(=O)[C@H](CO)NC(=O)[C@H](CO)NC(=O)[C@H](Cc1c[nH]cn1)NC(=O)[C@H](CCCNC(=N)N)NC(=O)[C@H](CC(C)C)NC(=O)[C@H](Cc1ccccc1)NC(=O)[C@H](CC(N)=O)NC(=O)[C@H](C)NC(=O)[C@H](CC(C)C)NC(=O)[C@H](CCCNC(=N)N)NC(=O)[C@H](CCC(N)=O)NC(=O)[C@@H](NC(=O)[C@H](C)NC(=O)[C@@H]1CSSC[C@H](NC(=O)[C@H](CCCCN)NC(=O)[C@@H](N)CCCCNC(=O)CC[C@H](NC(=O)CC[C@H](NC(=O)CCCCCCCCCCCCCCCCC(=O)O)C(=O)O)C(=O)O)C(=O)N[C@@H](CC(N)=O)C(=O)N[C@@H]([C@@H](C)O)C(=O)N[C@@H](C)C(=O)N[C@@H]([C@@H](C)O)C(=O)N1)[C@@H](C)O)C(=O)N[C@@H](CC(C)C)C(=O)N1CCC[C@H]1C(=O)N1CCC[C@H]1C(=O)N[C@H](C(=O)N[C@@H](CC(N)=O)C(=O)N[C@H](C(=O)NCC(=O)N[C@@H](CO)C(=O)N[C@@H](CC(N)=O)C(=O)N[C@H](C(=O)N[C@@H](Cc1ccc(O)cc1)C(N)=O)[C@@H](C)O)C(C)C)[C@@H](C)O) [Peptide 66 (SEQ ID NO: 66)] | 0.418 | 17 | 7.01
K([γGlu-γGlu-C18 diacid])CNTATCATQRLANFLVHSS[Aib]NFGPILPPTRVGSNTY-NH2 (disulfide 2-7; N-terminus assumed; SMILES CC[C@H](C)[C@H](NC(=O)[C@@H]1CCCN1C(=O)CNC(=O)[C@H](Cc1ccccc1)NC(=O)[C@H](CC(N)=O)NC(=O)C(C)(C)NC(=O)[C@H](CO)NC(=O)[C@H](CO)NC(=O)[C@H](Cc1c[nH]cn1)NC(=O)[C@@H](NC(=O)[C@H](CC(C)C)NC(=O)[C@H](Cc1ccccc1)NC(=O)[C@H](CC(N)=O)NC(=O)[C@H](C)NC(=O)[C@H](CC(C)C)NC(=O)[C@H](CCCNC(=N)N)NC(=O)[C@H](CCC(N)=O)NC(=O)[C@@H](NC(=O)[C@H](C)NC(=O)[C@@H]1CSSC[C@H](NC(=O)[C@@H](N)CCCCNC(=O)CC[C@H](NC(=O)CC[C@H](NC(=O)CCCCCCCCCCCCCCCCC(=O)O)C(=O)O)C(=O)O)C(=O)N[C@@H](CC(N)=O)C(=O)N[C@@H]([C@@H](C)O)C(=O)N[C@@H](C)C(=O)N[C@@H]([C@@H](C)O)C(=O)N1)[C@@H](C)O)C(C)C)C(=O)N[C@@H](CC(C)C)C(=O)N1CCC[C@H]1C(=O)N1CCC[C@H]1C(=O)N[C@H](C(=O)N[C@@H](CCCNC(=N)N)C(=O)N[C@H](C(=O)NCC(=O)N[C@@H](CO)C(=O)N[C@@H](CC(N)=O)C(=O)N[C@H](C(=O)N[C@@H](Cc1ccc(O)cc1)C(N)=O)[C@@H](C)O)C(C)C)[C@@H](C)O) [Peptide 67 (SEQ ID NO: 67)] | 0.132 | 30 | 4.01
K([γGlu-C18 diacid])CNTATCATQRLANFLVHSS[Aib]NFGPILPPTNVGSRTY-NH2 (disulfide 2-7; N-terminus assumed; SMILES CC[C@H](C)[C@H](NC(=O)[C@@H]1CCCN1C(=O)CNC(=O)[C@H](Cc1ccccc1)NC(=O)[C@H](CC(N)=O)NC(=O)C(C)(C)NC(=O)[C@H](CO)NC(=O)[C@H](CO)NC(=O)[C@H](Cc1c[nH]cn1)NC(=O)[C@@H](NC(=O)[C@H](CC(C)C)NC(=O)[C@H](Cc1ccccc1)NC(=O)[C@H](CC(N)=O)NC(=O)[C@H](C)NC(=O)[C@H](CC(C)C)NC(=O)[C@H](CCCNC(=N)N)NC(=O)[C@H](CCC(N)=O)NC(=O)[C@@H](NC(=O)[C@H](C)NC(=O)[C@@H]1CSSC[C@H](NC(=O)[C@@H](N)CCCCNC(=O)CC[C@H](NC(=O)CCCCCCCCCCCCCCCCC(=O)O)C(=O)O)C(=O)N[C@@H](CC(N)=O)C(=O)N[C@@H]([C@@H](C)O)C(=O)N[C@@H](C)C(=O)N[C@@H]([C@@H](C)O)C(=O)N1)[C@@H](C)O)C(C)C)C(=O)N[C@@H](CC(C)C)C(=O)N1CCC[C@H]1C(=O)N1CCC[C@H]1C(=O)N[C@H](C(=O)N[C@@H](CC(N)=O)C(=O)N[C@H](C(=O)NCC(=O)N[C@@H](CO)C(=O)N[C@@H](CCCNC(=N)N)C(=O)N[C@H](C(=O)N[C@@H](Cc1ccc(O)cc1)C(N)=O)[C@@H](C)O)C(C)C)[C@@H](C)O) [Peptide 64 (SEQ ID NO: 64)] | 0.149 | 9 | 1.28

The next lines start with the values.

EC50 (cAMP production) [1] [nM] | Ratio (EC50 hCTR / EC50 hAMYR3) [1] | EC50 (cAMP production) [2] [nM] | Binder
0.164 | 10 | 1.57 | K([γGlu-C18 diacid])KCNTATCATQRLANFLVHSS[Aib]NFGPILPPTRVGSNTY-NH2 (disulfide 3-8; N-terminus assumed; SMILES CC[C@H](C)[C@H](NC(=O)[C@@H]1CCCN1C(=O)CNC(=O)[C@H](Cc1ccccc1)NC(=O)[C@H](CC(N)=O)NC(=O)C(C)(C)NC(=O)[C@H](CO)NC(=O)[C@H](CO)NC(=O)[C@H](Cc1c[nH]cn1)NC(=O)[C@@H](NC(=O)[C@H](CC(C)C)NC(=O)[C@H](Cc1ccccc1)NC(=O)[C@H](CC(N)=O)NC(=O)[C@H](C)NC(=O)[C@H](CC(C)C)NC(=O)[C@H](CCCNC(=N)N)NC(=O)[C@H](CCC(N)=O)NC(=O)[C@@H](NC(=O)[C@H](C)NC(=O)[C@@H]1CSSC[C@H](NC(=O)[C@H](CCCCN)NC(=O)[C@@H](N)CCCCNC(=O)CC[C@H](NC(=O)CCCCCCCCCCCCCCCCC(=O)O)C(=O)O)C(=O)N[C@@H](CC(N)=O)C(=O)N[C@@H]([C@@H](C)O)C(=O)N[C@@H](C)C(=O)N[C@@H]([C@@H](C)O)C(=O)N1)[C@@H](C)O)C(C)C)C(=O)N[C@@H](CC(C)C)C(=O)N1CCC[C@H]1C(=O)N1CCC[C@H]1C(=O)N[C@H](C(=O)N[C@@H](CCCNC(=N)N)C(=O)N[C@H](C(=O)NCC(=O)N[C@@H](CO)C(=O)N[C@@H](CC(N)=O)C(=O)N[C@H](C(=O)N[C@@H](Cc1ccc(O)cc1)C(N)=O)[C@@H](C)O)C(C)C)[C@@H](C)O) [Peptide 69 (SEQ ID NO: 69)]
0.192 | 9 | 1.77 | {C18 diacid-γGlu}-CNTATCATQRLANFLVHSS[Aib]NFGPILPPTRVGSNTY-NH2 (disulfide 1-6; SMILES CC[C@H](C)[C@H](NC(=O)[C@@H]1CCCN1C(=O)CNC(=O)[C@H](Cc1ccccc1)NC(=O)[C@H](CC(N)=O)NC(=O)C(C)(C)NC(=O)[C@H](CO)NC(=O)[C@H](CO)NC(=O)[C@H](Cc1c[nH]cn1)NC(=O)[C@@H](NC(=O)[C@H](CC(C)C)NC(=O)[C@H](Cc1ccccc1)NC(=O)[C@H](CC(N)=O)NC(=O)[C@H](C)NC(=O)[C@H](CC(C)C)NC(=O)[C@H](CCCNC(=N)N)NC(=O)[C@H](CCC(N)=O)NC(=O)[C@@H](NC(=O)[C@H](C)NC(=O)[C@@H]1CSSC[C@H](NC(=O)CC[C@H](NC(=O)CCCCCCCCCCCCCCCCC(=O)O)C(=O)O)C(=O)N[C@@H](CC(N)=O)C(=O)N[C@@H]([C@@H](C)O)C(=O)N[C@@H](C)C(=O)N[C@@H]([C@@H](C)O)C(=O)N1)[C@@H](C)O)C(C)C)C(=O)N[C@@H](CC(C)C)C(=O)N1CCC[C@H]1C(=O)N1CCC[C@H]1C(=O)N[C@H](C(=O)N[C@@H](CCCNC(=N)N)C(=O)N[C@H](C(=O)NCC(=O)N[C@@H](CO)C(=O)N[C@@H](CC(N)=O)C(=O)N[C@H](C(=O)N[C@@H](Cc1ccc(O)cc1)C(N)=O)[C@@H](C)O)C(C)C)[C@@H](C)O) [Peptide 68 (SEQ ID NO: 68)]

Reference: patent US20220204580A1 (AstraZeneca / MedImmune, published 2022)
